In PMC8395186, “Structural Basis of Inhibition of DCLK1 by Ruxolitinib” (International Journal of Molecular Sciences, 2021):

Target: the molecule itself
Test: crystal structure; sitting-drop vapor diffusion at 23 °C; co-crystallised with AMP-PNP, then soaked with ruxolitinib; two molecules per asymmetric unit; interface analysed with the PISA server

B1: Doublecortin-like kinase 1 (DCLK1) kinase domain (domain or fragment, UniProt O15075 372-649, looked up)
chain: GEEVSEEGFQIPATITERYKVGRTIGDGNFAVVKECVERSTAREYALKIIKKSKCRGKEHMIQNEVSILRRVKHPNIVLLIEEMDVPTELYLVMELVKGGDLFDAITSTNKYTERDASGMLYNLASAIKYLHSLNIVHRDIKPENLLVYEHQDGSKSLKLGDFGLATIVDGPLYTVCGTPTYVAPEIIAETGYGLKVDIWAAGVITYILLCGFPPFRGSGDDQEVLFDQILMGQVDFPSPYWDNVSDSAKELITMMLLVDVDQRFSAVQVLEHPWVND
notes: Doublecortin-like kinase 1 (DCLK1), kinase domain, residues Gly372-Asp649; residues 376-648 are resolved in the structure; Non-phosphorylated; Crystallised with AMP-PNP, then soaked with ruxolitinib; Two molecules per asymmetric unit form the dimer; also called DCLK1KD; source: E. coli Rosetta2(DE3)pLysS, purified (Ni-NTA, TEV cleavage, SEC); not shown: His6, N-terminal, cleaved
- stoichiometry N: 2
